Measurements taken from paper PMC10966104.

Columns and labels:
[1] = molecular target: sheath initiator gp30 of cyanophage A-1(L) (cyanophage A-1(L)); experiment: cryo-EM structure; intact A-1(L) particles purified from infected Anabaena sp. PCC 7120, in SM buffer (50 mM Tris-HCl pH 7.5, 10 mM MgSO4, 100 mM NaCl); local reconstructions of portal, gp5-neck fiber, gp7-terminator, sheath-tube, baseplate and tail fibers
[2] = molecular target: long tail fiber gp34 of cyanophage A-1(L) (cyanophage A-1(L)); experiment: as above
[3] = molecular target: neck fiber protein gp82 of cyanophage A-1(L), in the virion (cyanophage A-1(L)); experiment: as above
[4] = molecular target: tail sheath protein gp9 of cyanophage A-1(L) (cyanophage A-1(L)); experiment: as above
[5] = molecular target: neck protein gp7 of cyanophage A-1(L) (cyanophage A-1(L)); experiment: as above
[6] = molecular target: baseplate wedge protein gp32 of cyanophage A-1(L) (cyanophage A-1(L)); experiment: as above
[7] = molecular target: tail terminator gp8 of cyanophage A-1(L) (cyanophage A-1(L)); experiment: as above
[8] = molecular target: neck protein gp5 of cyanophage A-1(L) (cyanophage A-1(L)); experiment: as above
[9] = molecular target: tail tube protein gp10 of cyanophage A-1(L) (cyanophage A-1(L)); experiment: as above
[10] = molecular target: recombinant gp82 of the neck fiber gp82-gp81-gp80-His6 (cyanophage A-1(L)); experiment: SEC-MALS; recombinant neck fiber gp82-gp81-gp80-His6, 1 mg/mL, 100 uL, Superdex 200 Increase 10/300 GL in binding buffer
[11] = molecular target: recombinant gp80-His6 of the neck fiber (cyanophage A-1(L)); experiment: as above
[12] = molecular target: baseplate hub gp15 of cyanophage A-1(L) (cyanophage A-1(L)); experiment: cryo-EM structure; intact A-1(L) particles purified from infected Anabaena sp. PCC 7120, in SM buffer (50 mM Tris-HCl pH 7.5, 10 mM MgSO4, 100 mM NaCl); local reconstructions of portal, gp5-neck fiber, gp7-terminator, sheath-tube, baseplate and tail fibers
[13] = molecular target: short tail fiber gp33 of cyanophage A-1(L) (cyanophage A-1(L)); experiment: as above
[14] = molecular target: tape measure protein gp13 of cyanophage A-1(L) (cyanophage A-1(L)); experiment: as above
[15] = molecular target: tube initiator gp18 of cyanophage A-1(L) (cyanophage A-1(L)); experiment: as above
[16] = molecular target: portal protein gp2 of cyanophage A-1(L) (cyanophage A-1(L)); experiment: as above
[17] = molecular target: central spike gp25 of cyanophage A-1(L) (cyanophage A-1(L)); experiment: as above

Work on “sheath initiator gp30 of cyanophage A-1(L) (natural protein)” yielded a stoichiometry N [1] of 6 subunits.

“long tail fiber gp34 of cyanophage A-1(L) (natural protein)” showed a stoichiometry N [2] of 3 subunits.

Substance “neck fiber protein gp82 of cyanophage A-1(L), in the virion (natural protein)” has a stoichiometry N [3] of 3 subunits.

Work on “tail sheath protein gp9 of cyanophage A-1(L) (natural protein)” yielded a stoichiometry N (subunits in a ring) [4] of 6.

“neck protein gp7 of cyanophage A-1(L) (natural protein)” gave a stoichiometry N [5] of 6 subunits.

“baseplate wedge protein gp31 of cyanophage A-1(L) (natural protein)” gave a stoichiometry N (gp31 per gp32) [6] of 2.

With “tail terminator gp8 of cyanophage A-1(L) (natural protein)” the stoichiometry N [7] was 6 subunits.

With “neck protein gp5 of cyanophage A-1(L) (natural protein)” the stoichiometry N [8] was 15 subunits.

“tail tube protein gp10 of cyanophage A-1(L) (natural protein)” gave a stoichiometry N (subunits in a ring) [9] of 6.

In the case of “recombinant gp81 of the neck fiber (natural protein)”, the stoichiometry N (gp81 trimers per gp82 trimer) [10] is reported as 14 and the stoichiometry N (gp81 trimers per gp80 trimer) [11] is reported as 14.

For “baseplate hub gp15 of cyanophage A-1(L) (natural protein)”, the stoichiometry N [12] was 3 subunits.

“short tail fiber gp33 of cyanophage A-1(L) (natural protein)” was tested, and the stoichiometry N [13] was 3 subunits.

“tape measure protein gp13 of cyanophage A-1(L) (natural protein)” gave a stoichiometry N [14] of 6.

For “tube initiator gp18 of cyanophage A-1(L) (natural protein)”, the stoichiometry N [15] was 6 subunits.

For “portal protein gp2 of cyanophage A-1(L) (natural protein)”, the stoichiometry N [16] was 12 subunits.

For “central spike gp25 of cyanophage A-1(L) (natural protein)”, the stoichiometry N [17] was 3 subunits.
